Reference: patent publication US20200165325A1
Where a chain is given by its changes, count along the chain named. Like-named read-outs stand apart in the source and are kept apart here.

Experiments:
[1] = target: HIV-1 Env of strain CAP45.2.00.G3 (HIV-1)
[2] = target: HIV-1 Env of strain Du172.17 (HIV-1)
[3] = target: HIV-1 Env of strain TRO.11 (HIV-1)
[4] = target: HIV-1 Env of strain SC422661.8 (HIV-1)
[5] = target: HIV-1 Env of strain AC10.0.29 (HIV-1)
[6] = target: HIV-1 Env of strain CAP210.2.00.E8 (HIV-1)
[7] = target: Env (gp120) of HIV-1 strain Du172.17 (HIV-1)
[8] = target: Env (gp120) of HIV-1 strain TRO.11 (HIV-1)
[9] = target: Env (gp120) of HIV-1 strain AC10.0.29 (HIV-1)
[10] = target: Env (gp120) of HIV-1 strain CAP210.2.00.E8 (HIV-1)
[11] = target: Env (gp120) of HIV-1 strain SC422661.8 (HIV-1)
[12] = target: Env (gp120) of HIV-1 strain CAP45.2.00.G3 (HIV-1)
[13] = target: Env (gp120) of HIV-1 strain T257-31 (HIV-1)
[14] = target: Env (gp120) of HIV-1 strain TRO.11 (HIV-1); remark: listed apart in the source
[15] = target: Env (gp120) of HIV-1 strain AC10.0.29 (HIV-1); remark: listed apart in the source
[16] = target: Env (gp120) of HIV-1 strain ZM214M.PL15 (HIV-1)
[17] = target: Env (gp120) of HIV-1 strain QH0692.42 (HIV-1)
[18] = target: Env (gp120) of HIV-1 strain SC422661.8 (HIV-1); remark: listed apart in the source
[19] = target: Env (gp120) of HIV-1 strain CAP45.2.00.G3 (HIV-1); remark: listed apart in the source
[20] = target: HIV-1 Env of strain QH0692.42 (HIV-1)
[21] = target: HIV-1 Env of strain CAP45.2.00.G3 (HIV-1); remark: listed apart in the source
[22] = target: HIV-1 Env of strain ZM214M.PL15.11 (HIV-1)
[23] = target: HIV-1 Env of strain T257-31 (HIV-1)
[24] = target: HIV-1 Env of strain TRO.11 (HIV-1); remark: listed apart in the source
[25] = target: HIV-1 Env of strain SC422661.8 (HIV-1); remark: listed apart in the source
[26] = target: HIV-1 Env of strain AC10.0.29 (HIV-1); remark: listed apart in the source
[27] = target: Env (gp120) of HIV-1 strain 3016.v5.c45 (HIV-1)
[28] = target: Env (gp120) of HIV-1 strain C2101.c01 (HIV-1)

3BNC55 T54W IgG (antibody)
In vitro neutralization IC50 [1]: > 50 µg/mL
In vitro neutralization IC50 [2]: > 50 µg/mL
In vitro neutralization IC50 [3]: > 50 µg/mL
In vitro neutralization IC50 [4]: 0.6 µg/mL
In vitro neutralization IC50 [5]: > 50 µg/mL
In vitro neutralization IC50 [6]: > 50 µg/mL

3BNC60 T54W IgG (antibody)
In vitro neutralization IC50 [1]: 19 µg/mL
In vitro neutralization IC50 [2]: 0.04 µg/mL
In vitro neutralization IC50 [3]: 0.06 µg/mL
In vitro neutralization IC50 [4]: 0.1 µg/mL
In vitro neutralization IC50 [5]: 3.1 µg/mL
In vitro neutralization IC50 [6]: 5 µg/mL

3BNC117 T54W IgG (antibody)
In vitro neutralization IC50 [1]: 23 µg/mL
In vitro neutralization IC50 [2]: 0.9 µg/mL
In vitro neutralization IC50 [3]: 0.6 µg/mL
In vitro neutralization IC50 [4]: 0.07 µg/mL
In vitro neutralization IC50 [5]: 2.8 µg/mL
In vitro neutralization IC50 [6]: 2.8 µg/mL

12A12 Y54W IgG (antibody)
In vitro neutralization IC50 [1]: 0.2 µg/mL
In vitro neutralization IC50 [2]: 0.1 µg/mL
In vitro neutralization IC50 [3]: 0.2 µg/mL
In vitro neutralization IC50 [4]: 0.2 µg/mL
In vitro neutralization IC50 [5]: 0.5 µg/mL
In vitro neutralization IC50 [6]: > 50 µg/mL

NIH45-46 G54H IgG (antibody)
neutralization IC50 [7]: > 50 µg/mL
neutralization IC50 [8]: 0.2 µg/mL
neutralization IC50 [9]: 0.6 µg/mL
neutralization IC50 [10]: > 50 µg/mL
neutralization IC50 [11]: 0.09 µg/mL
neutralization IC50 [12]: > 50 µg/mL

NIH45-46 G54I IgG (antibody)
neutralization IC50 [7]: > 50 µg/mL
neutralization IC50 [8]: 10 µg/mL
neutralization IC50 [9]: 8.6 µg/mL
neutralization IC50 [10]: > 50 µg/mL
neutralization IC50 [11]: 0.1 µg/mL
neutralization IC50 [12]: > 50 µg/mL

NIH45-46 G54L IgG (antibody)
neutralization IC50 [7]: > 50 µg/mL
neutralization IC50 [8]: 0.3 µg/mL
neutralization IC50 [9]: 1.7 µg/mL
neutralization IC50 [10]: > 50 µg/mL
neutralization IC50 [11]: 0.1 µg/mL
neutralization IC50 [12]: > 50 µg/mL

NIH45-46 G54M IgG (antibody)
neutralization IC50 [7]: > 50 µg/mL
neutralization IC50 [8]: 0.3 µg/mL
neutralization IC50 [9]: 1.5 µg/mL
neutralization IC50 [10]: > 50 µg/mL
neutralization IC50 [11]: 0.06 µg/mL
neutralization IC50 [12]: > 50 µg/mL

NIH45-46 Y99dA (antibody)
neutralization IC50 [13]: 2.4 µg/mL
neutralization IC50 [14]: > 50 µg/mL
neutralization IC50 [15]: 4.4 µg/mL
neutralization IC50 [16]: 1.1 µg/mL
neutralization IC50 [17]: 2.1 µg/mL
neutralization IC50 [18]: 0.08 µg/mL
neutralization IC50 [19]: > 50 µg/mL

NIH45-46 heavy chain paired with VRC01 light chain, IgG (antibody)
In vitro neutralization IC50 [20]: 0.9 µg/mL
In vitro neutralization IC50 [21]: 2.1 µg/mL
In vitro neutralization IC50 [22]: 0.6 µg/mL
In vitro neutralization IC50 [23]: 0.6 µg/mL
In vitro neutralization IC50 [24]: 0.3 µg/mL
In vitro neutralization IC50 [25]: 0.2 µg/mL
In vitro neutralization IC50 [26]: 1 µg/mL

NIH45-46 Δ99a-99d (antibody)
neutralization IC50 [13]: 7 µg/mL
neutralization IC50 [14]: > 50 µg/mL
neutralization IC50 [15]: 13 µg/mL
neutralization IC50 [16]: 2.2 µg/mL
neutralization IC50 [17]: 3.7 µg/mL
neutralization IC50 [18]: 1.4 µg/mL
neutralization IC50 [19]: > 50 µg/mL

VRC01 (antibody)
neutralization IC50 [27]: 0.16 µg/mL
neutralization IC50 [28]: 0.36 µg/mL

VRC01 IgG (antibody)
In vitro neutralization IC50 [20]: 0.7 µg/mL
In vitro neutralization IC50 [21]: 1.8 µg/mL
In vitro neutralization IC50 [22]: 0.8 µg/mL
In vitro neutralization IC50 [24]: 0.5 µg/mL
In vitro neutralization IC50 [25]: 0.2 µg/mL
In vitro neutralization IC50 [26]: 0.8 µg/mL

VRC01 heavy chain paired with NIH45-46 light chain, IgG (antibody)
In vitro neutralization IC50 [20]: 1.2 µg/mL
In vitro neutralization IC50 [21]: > 50 µg/mL
In vitro neutralization IC50 [22]: 1.8 µg/mL
In vitro neutralization IC50 [23]: 15 µg/mL
In vitro neutralization IC50 [24]: 24 µg/mL
In vitro neutralization IC50 [25]: 0.4 µg/mL
In vitro neutralization IC50 [26]: 4.5 µg/mL

B1: 3BNC60 IgG (wild type) (antibody)
heavy: QVHLSQSGAAVTKPGASVRVSCEASGYKISDHFIHWWRQAPGQGLQWVGWINPKTGQPNNPRQFQGRVSLTRQASWDFDTYSFYMDLKAVRSDDTAIYFCARQRSDFWDFDVWGSGTQVTVSS
light: DIQMTQSPSSLSARVGDTVTITCQANGYLNWYQQRRGKAPKLLIYDGSKLERGVPARFSGRRWGQEYNLTINNLQPEDVATYFCQVYEFIVPGTRLDLKRTVA
In vitro neutralization IC50 [1]: 10 µg/mL
In vitro neutralization IC50 [2]: 0.05 µg/mL
In vitro neutralization IC50 [3]: 0.07 µg/mL
In vitro neutralization IC50 [4]: 0.1 µg/mL
In vitro neutralization IC50 [5]: 13 µg/mL
In vitro neutralization IC50 [6]: 4.7 µg/mL

B2: 3BNC117 IgG (wild type) (antibody)
heavy: B1 heavy with H3Q, S5L, K28N, S30R, H32Y, Q73H, Y81F, V90L, I97V, F107Y
light: B1 light with R14S, A56S, V79I, I90V
In vitro neutralization IC50 [1]: 16 µg/mL
In vitro neutralization IC50 [2]: 0.04 µg/mL
In vitro neutralization IC50 [3]: 0.6 µg/mL
In vitro neutralization IC50 [4]: 0.07 µg/mL
In vitro neutralization IC50 [5]: 6.5 µg/mL
In vitro neutralization IC50 [6]: 11 µg/mL

B3: 3BNC55 IgG (wild type) (antibody, V domains shown)
VH: QVQLVQSGTAVKRPGASVRVSCQASGYTFTDYFIYWWRQAPGQGLEWLGWINPLTSQPSYPSRFQGRLTLTRDTFDEMLYMDLRGLRSDDTGIYFCARRHSDYCDFDIWGSGTQIIVSS
VL: DIQMTQSPSSLSASVGDKVTITCQTSAGYLNWYQQRRGRAPKLLMYDGSRLVTGVPSRFSGRRWGTQYNLTIGSLQPEDIATYYCQVYEFFGPGTRLDLKS
In vitro neutralization IC50 [1]: > 50 µg/mL
In vitro neutralization IC50 [2]: 2 µg/mL
In vitro neutralization IC50 [3]: 7.6 µg/mL
In vitro neutralization IC50 [4]: 0.3 µg/mL
In vitro neutralization IC50 [5]: > 50 µg/mL
In vitro neutralization IC50 [6]: > 50 µg/mL

B4: 12A12 IgG (wild type) (antibody, V domains shown)
VH: SQHLVQSGTQVKKPGASVRISCQASGYSFTDYVLHWWRQAPGQGLEWMGWIKPVYGARNYARRFQGRINFDRDIYREIAFMDLSGLRSDDTALYFCARDGSGDDTSWHLDPWGQGTLVIVSA
VL: DIQMTQSPSSLSASVGDRVTITCQAGQGIGSSLQWYQQKPGKAPKLLVHGASNLHRGVPSRFSGSGFHTTFSLTISGLQRDDFATYFCAVLEFFGPGTKVEIKR
In vitro neutralization IC50 [1]: 0.4 µg/mL
In vitro neutralization IC50 [2]: 0.2 µg/mL
In vitro neutralization IC50 [3]: 0.3 µg/mL
In vitro neutralization IC50 [4]: 0.2 µg/mL
In vitro neutralization IC50 [5]: 0.6 µg/mL
In vitro neutralization IC50 [6]: > 50 µg/mL
